Drawing on the Immune Epitope Database (IEDB), this text covers IC50 for 23 sequences.

One assay concerns the target HLA-A*02:03. In words: IEDB peptide-MHC binding, purified MHC/competitive/radioactivity; ≥ and ≤ were set here for values at or beyond the usual limits of such assays.
For the next assay, the target named is HLA-A*02:06. The assay is described as above.
The next assay has as its target HLA-A*02:02. Described as above.
For a further assay, the target named is HLA-A*68:02. The description is as above.
Assay [1] addresses HLA-A*02:01. In words: IEDB peptide-MHC binding, cellular MHC/competitive/fluorescence; ≥ and ≤ were set here for values at or beyond the usual limits of such assays. The conditions noted are these: source organism: Vaccinia virus WR.
Assay [2] addresses HLA-A*02:01. In words: IEDB peptide-MHC binding, purified MHC/competitive/radioactivity; ≥ and ≤ were set here for values at or beyond the usual limits of such assays.
Setting [3] is: source organism: Vaccinia virus WR.
Where [4] appears, read: source organism: Mammarenavirus brazilense.
Setting [5] is: source organism: Hepacivirus hominis.
Where [6] appears, read: source organism: Influenza A virus.

As to EATFIDVHI, the IC50 was found to be 862 nM with HLA-A*02:03 (setting [3]); 3430 nM with HLA-A*02:06 (setting [3]); 1660 nM in the assay with HLA-A*02:02 (setting [3]); 0.13 nM in the assay with HLA-A*68:02 (setting [3]); 10700 nM with HLA-A*02:01 [1].
For the sequence ELKHGLLDSI, the half-maximal inhibitory concentration (IC50) was determined as 738 nM in the assay with HLA-A*02:01 [2] (setting [3]); 55 nM with HLA-A*02:03 (setting [3]); 1340 nM in the assay with HLA-A*02:06 (setting [3]); 540 nM in the assay with HLA-A*02:02 (setting [3]); 266 nM with HLA-A*68:02 (setting [3]).
Consider KVIKLVKSL, for which the half-inhibitory concentration (IC50) with HLA-A*02:01 [2] (setting [3]) was 395 nM; in the assay with HLA-A*02:03 (setting [3]) it was 43 nM; with HLA-A*02:06 (setting [3]) it was 260 nM; with HLA-A*02:02 (setting [3]), 578 nM; in the assay with HLA-A*68:02 (setting [3]), 366 nM.
Turning to TSLGLLYTV, the 50% inhibitory concentration (IC50) in the assay with HLA-A*02:01 [2] (setting [4]) is 115 nM; with HLA-A*02:03 (setting [4]), 405 nM; with HLA-A*02:06 (setting [4]), 4.2 nM; with HLA-A*02:02 (setting [4]), 934 nM; in the assay with HLA-A*68:02 (setting [4]), 13 nM.
Consider VLMTHFFSV, for which the IC50 was determined as 1.9 nM with HLA-A*02:01 [2] (setting [5]); 2.6 nM in the assay with HLA-A*02:03 (setting [5]); 6.1 nM with HLA-A*02:06 (setting [5]); 4.9 nM in the assay with HLA-A*02:02 (setting [5]); 103 nM with HLA-A*68:02 (setting [5]).
Take WLKDSAIMV: the IC50 in the assay with HLA-A*02:01 [2] (setting [3]) came out at 326 nM; with HLA-A*02:03 (setting [3]) it was 28 nM; in the assay with HLA-A*02:06 (setting [3]), 2280 nM; with HLA-A*02:02 (setting [3]), 191 nM; with HLA-A*68:02 (setting [3]) it was 1010 nM.
With LVIGVAFLAV, the IC50 stood at 342 nM with HLA-A*02:01 [2] (source organism: SARS-CoV1); 22 nM in the assay with HLA-A*02:03 (source organism: SARS-CoV1); 2.6 nM with HLA-A*02:06 (source organism: SARS-CoV1); 2710 nM with HLA-A*02:02 (source organism: SARS-CoV1); 62 nM with HLA-A*68:02 (source organism: SARS-CoV1).
Consider ALVCYIVMPV, for which the IC50 with HLA-A*02:01 [2] (source organism: SARS-CoV1) was 5.6 nM; in the assay with HLA-A*02:03 (source organism: SARS-CoV1) it was 4.4 nM; with HLA-A*02:06 (source organism: SARS-CoV1) it was 2.9 nM; in the assay with HLA-A*02:02 (source organism: SARS-CoV1), 1.2 nM; with HLA-A*68:02 (source organism: SARS-CoV1), 88 nM.
In the case of LVMDKNHAI, the half-inhibitory concentration (IC50) worked out at 327 nM with HLA-A*02:01 [2] (setting [3]); 770 nM with HLA-A*02:03 (setting [3]); 103 nM in the assay with HLA-A*02:06 (setting [3]); 19 nM with HLA-A*02:02 (setting [3]); 10 nM in the assay with HLA-A*68:02 (setting [3]).
The like results for IAVITETIPI were, in that order, 53 nM, 32 nM, 1 nM, 515 nM and 154 nM.
Regarding IMAFILGII, the IC50 came to 166 nM in the assay with HLA-A*02:01 [2] (setting [3]); 30 nM in the assay with HLA-A*02:03 (setting [3]); 175 nM with HLA-A*02:06 (setting [3]); 17 nM with HLA-A*02:02 (setting [3]); 2520 nM with HLA-A*68:02 (setting [3]).
As to CVMYASALV, the IC50 with HLA-A*02:01 [2] (source organism: SARS-CoV1) amounted to 9.3 nM; with HLA-A*02:03 (source organism: SARS-CoV1), 2.9 nM; with HLA-A*02:06 (source organism: SARS-CoV1), 7.4 nM; in the assay with HLA-A*02:02 (source organism: SARS-CoV1) it was 4.5 nM; with HLA-A*68:02 (source organism: SARS-CoV1), 0.89 nM.
With SVMNFIPII, the 50% inhibitory concentration (IC50) came out at 1.7 nM in the assay with HLA-A*02:01 [2] (setting [3]); 6.3 nM with HLA-A*02:03 (setting [3]); 2.8 nM in the assay with HLA-A*02:06 (setting [3]); 13 nM with HLA-A*02:02 (setting [3]); 58 nM with HLA-A*68:02 (setting [3]).
As to ALIARCWYL, the IC50 with HLA-A*02:01 [2] (source organism: SARS-CoV1) was 0.46 nM; with HLA-A*02:03 (source organism: SARS-CoV1), 17 nM; with HLA-A*02:06 (source organism: SARS-CoV1), 0.98 nM; with HLA-A*02:02 (source organism: SARS-CoV1), 0.2 nM; with HLA-A*68:02 (source organism: SARS-CoV1), 1260 nM.
For the sequence YLYTEYFLFL, the half-inhibitory concentration (IC50) with HLA-A*02:01 [2] (setting [3]) was 0.069 nM; with HLA-A*02:03 (setting [3]) it was 0.56 nM; with HLA-A*02:06 (setting [3]), 0.007 nM; with HLA-A*02:02 (setting [3]) it was 0.085 nM; in the assay with HLA-A*68:02 (setting [3]), 76 nM.
HILHAYCGI: the concentration for half-maximal inhibition (IC50) in the assay with HLA-A*02:01 [2] (setting [3]) is 1480 nM; in the assay with HLA-A*02:03 (setting [3]) it was 66 nM; in the assay with HLA-A*02:06 (setting [3]), 359 nM; with HLA-A*02:02 (setting [3]) it was 123 nM; with HLA-A*68:02 (setting [3]), 143 nM.
The matching figures for KVLSIMAFIL: 88 nM, 684 nM, 19 nM, 2.3 nM and 2970 nM.
On to NIPELKHGLL, for which the half-inhibitory concentration (IC50) in the assay with HLA-A*02:01 [2] (setting [3]) was 2560 nM; with HLA-A*02:03 (setting [3]) it was 2700 nM; in the assay with HLA-A*02:06 (setting [3]) it was 1230 nM; with HLA-A*02:02 (setting [3]), 2300 nM; with HLA-A*68:02 (setting [3]) it was 100 nM.
The matching figures for TISGNIYSA: 207 nM, 19 nM, 179 nM, 85 nM and 11 nM.
The like results for TILATLNTLI were, in that order, 184 nM, 30 nM, 335 nM, 40 nM and 1470 nM.
Take NMLRIMASL: the half-maximal inhibitory concentration (IC50) with HLA-A*02:01 [2] (source organism: SARS-CoV1) amounted to 68 nM; with HLA-A*02:03 (source organism: SARS-CoV1), 38 nM; with HLA-A*02:06 (source organism: SARS-CoV1), 50 nM; with HLA-A*02:02 (source organism: SARS-CoV1), 3.4 nM; with HLA-A*68:02 (source organism: SARS-CoV1) it was 1310 nM.
For the sequence SSLENFRAYV, the IC50 was found to be 172 nM with HLA-A*02:01 [2] (setting [6]); 1140 nM in the assay with HLA-A*02:03 (setting [6]); 44 nM in the assay with HLA-A*02:06 (setting [6]); 204 nM with HLA-A*02:02 (setting [6]); 24 nM in the assay with HLA-A*68:02 (setting [6]).
For IVPEFAKQYV, the concentration for half-maximal inhibition (IC50) with HLA-A*02:01 [2] (setting [3]) is 5 nM; in the assay with HLA-A*02:03 (setting [3]), 18 nM; with HLA-A*02:06 (setting [3]), 15 nM; in the assay with HLA-A*02:02 (setting [3]), 10 nM; with HLA-A*68:02 (setting [3]), 3.5 nM.
